For the assay, the target named is Fc gamma receptor (Fc(γ)R) on dendritic cells. As to the kind of experiment: cell-based or functional assay.

One substance from US20040219155A1 can be followed below.

monoclonal antibody 3G4 (ATCC PTA 4545) returned a DC uptake of apoptotic tumor cells of 300%.
